{"source": "paper PMC8452523", "about": "(Cell Reports, 2021)", "target": "trimeric Spike, full B.1.351 variant (SARS-CoV-2, lineage B.1.351 (Beta), strain)", "experiment": "Luminex bead-based binding assay", "data": [{"binder": "REGN10933 (antibody, V domains shown) VH: QVQLVESGGGLVKPGGSLRLSCAASGFTFSDYYMSWIRQAPGKGLEWVSYITYSGSTIYYADSVKGRFTISRDNAKSSLYLQMNSLRAEDTAVYYCARDRGTTMVPFDYWGQGTLVTVSS VL: DIQMTQSPSSLSASVGDRVTITCQASQDITNYLNWYQQKPGKAPKLLIYAASNLETGVPSRFSGSGSGTDFTFTISGLQPEDIATYYCQQYDNLPLTFGGGTKVEIK", "values": [{"measurement": "fold reduced binding affinity", "value": 15, "unit": "fold"}]}]}
